Reference: PMC9482650, “Quantitative fragmentomics allow affinity mapping of interactomes” (Nature Communications, 2022)

T1: DFNB31_2, Q9P202
T1 sequence (Q9P202 274-371, limits assumed, looked up): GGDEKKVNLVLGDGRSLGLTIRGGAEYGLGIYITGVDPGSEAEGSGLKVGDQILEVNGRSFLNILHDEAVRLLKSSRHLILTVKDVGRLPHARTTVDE

T2: SNTB1, Q13884
T2 sequence (Q13884 107-205, limits assumed, looked up): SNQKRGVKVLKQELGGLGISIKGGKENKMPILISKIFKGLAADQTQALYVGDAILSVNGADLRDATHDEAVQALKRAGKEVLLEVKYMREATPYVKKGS

T3: LIN7B, Q9HAP6
T3 sequence (Q9HAP6 88-185, limits assumed, looked up): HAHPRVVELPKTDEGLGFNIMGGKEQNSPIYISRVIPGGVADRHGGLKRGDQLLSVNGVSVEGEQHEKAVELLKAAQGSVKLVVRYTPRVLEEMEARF

T4: PDZRN3_1, Q9UPQ7
T4 sequence (Q9UPQ7 244-349, limits assumed, looked up): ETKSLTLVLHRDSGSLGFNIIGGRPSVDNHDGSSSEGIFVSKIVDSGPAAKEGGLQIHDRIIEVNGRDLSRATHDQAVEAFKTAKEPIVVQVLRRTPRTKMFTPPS

T5: SHANK1, Q9Y566
T5 sequence (Q9Y566 658-767, limits assumed, looked up): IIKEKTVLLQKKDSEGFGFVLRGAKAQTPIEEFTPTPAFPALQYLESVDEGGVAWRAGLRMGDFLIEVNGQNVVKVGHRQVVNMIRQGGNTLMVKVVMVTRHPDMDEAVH

T6: ARHGEF11, O15085
T6 sequence (O15085 42-136, limits assumed, looked up): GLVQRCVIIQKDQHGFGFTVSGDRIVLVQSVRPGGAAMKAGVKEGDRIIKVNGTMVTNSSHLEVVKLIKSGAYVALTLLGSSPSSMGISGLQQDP

T7: PDZD2_2, O15018
T7 sequence (O15018 329-429, limits assumed, looked up): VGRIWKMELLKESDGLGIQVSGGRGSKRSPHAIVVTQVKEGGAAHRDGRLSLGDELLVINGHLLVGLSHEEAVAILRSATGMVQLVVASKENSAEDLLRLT

T8: PTPN13_1, Q12923
T8 sequence (Q12923 1088-1188, limits assumed, looked up): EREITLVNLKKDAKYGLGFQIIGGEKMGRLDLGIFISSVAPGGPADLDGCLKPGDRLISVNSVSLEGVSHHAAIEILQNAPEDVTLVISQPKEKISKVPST

T9: LNX2_3, Q8N448
T9 sequence (Q8N448 463-564, limits assumed, looked up): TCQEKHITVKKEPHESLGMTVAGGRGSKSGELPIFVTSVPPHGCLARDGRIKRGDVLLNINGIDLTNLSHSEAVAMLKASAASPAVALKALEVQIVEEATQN

T10: GRIP1_2, Q9Y3R0
T10 sequence (Q9Y3R0 145-248, limits assumed, looked up): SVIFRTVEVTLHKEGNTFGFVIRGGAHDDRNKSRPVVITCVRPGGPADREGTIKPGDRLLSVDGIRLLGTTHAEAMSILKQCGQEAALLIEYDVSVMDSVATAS

T11: TX1BP3, O14907
T11 sequence (O14907 10-122, limits assumed, looked up): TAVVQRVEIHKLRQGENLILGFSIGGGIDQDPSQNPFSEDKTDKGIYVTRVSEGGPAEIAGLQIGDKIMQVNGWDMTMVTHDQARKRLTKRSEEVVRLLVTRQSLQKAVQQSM


Columns and labels:
Assay in all cases: holdup assay
Parameters in all cases: key: below the threshold = too weak to quantify, mostly under pKd 3.1 to 4
Conditions in all cases: plain residues with an end cap or a label only (N-terminal biotin on a linker: ado-ado)
[1] = target: GRIP2_3, Q9C0E4
[2] = target: T1, DFNB31_2, Q9P202
[3] = target: T2, SNTB1, Q13884
[4] = target: T3, LIN7B, Q9HAP6
[5] = target: T4, PDZRN3_1, Q9UPQ7
[6] = target: HTRA1, Q92743
[7] = target: Inadl_4, Q8NI35
[8] = target: LAP2, Q96RT1
[9] = target: Inadl_3, Q8NI35
[10] = target: T5, SHANK1, Q9Y566
[11] = target: GRASP, Q7Z6J2
[12] = target: T6, ARHGEF11, O15085
[13] = target: AHNAK1, Q09666
[14] = target: T7, PDZD2_2, O15018
[15] = target: T8, PTPN13_1, Q12923
[16] = target: Inadl_8, Q8NI35
[17] = target: T9, LNX2_3, Q8N448
[18] = target: PARD3_3, Q8TEW0
[19] = target: Inadl_10, Q8NI35
[20] = target: T10, GRIP1_2, Q9Y3R0
[21] = target: Inadl_5, Q8NI35
[22] = target: SCRIB_2, Q14160
[23] = target: T11, TX1BP3, O14907
[24] = target: TJP2_1, Q9UDY2
[25] = target: MAGI3_2, Q5TCQ9
[26] = target: PICK1, Q9NRD5
PICK1, Q9NRD5, sequence (Q9NRD5 17-115): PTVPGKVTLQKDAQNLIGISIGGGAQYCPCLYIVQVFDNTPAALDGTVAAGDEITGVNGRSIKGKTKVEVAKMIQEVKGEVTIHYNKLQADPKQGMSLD

Inadl_3, Q8NI35, sequence (Q8NI35 359-469): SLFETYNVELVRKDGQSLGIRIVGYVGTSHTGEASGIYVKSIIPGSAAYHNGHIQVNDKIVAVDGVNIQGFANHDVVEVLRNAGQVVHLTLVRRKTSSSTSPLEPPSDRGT
LAP2, Q96RT1, sequence (Q96RT1 other isoform, or with tags, fused parts or gaps): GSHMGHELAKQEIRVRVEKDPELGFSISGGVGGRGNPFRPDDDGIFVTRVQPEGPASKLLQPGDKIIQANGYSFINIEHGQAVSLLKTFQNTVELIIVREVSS
HTRA1, Q92743, sequence (Q92743 360-477): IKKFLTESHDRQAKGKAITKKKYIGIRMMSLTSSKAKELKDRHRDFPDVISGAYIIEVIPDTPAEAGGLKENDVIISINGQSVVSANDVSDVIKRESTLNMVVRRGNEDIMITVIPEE
Inadl_4, Q8NI35, sequence (Q8NI35 547-651): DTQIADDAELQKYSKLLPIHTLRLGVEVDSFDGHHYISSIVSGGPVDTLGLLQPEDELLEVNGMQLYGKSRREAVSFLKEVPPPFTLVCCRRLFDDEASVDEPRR
Inadl_5, Q8NI35, sequence (Q8NI35 673-780): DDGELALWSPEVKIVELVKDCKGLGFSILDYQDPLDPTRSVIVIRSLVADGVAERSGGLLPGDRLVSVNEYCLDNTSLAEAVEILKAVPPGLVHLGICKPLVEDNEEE
PARD3_3, Q8TEW0, sequence (Q8TEW0 582-685): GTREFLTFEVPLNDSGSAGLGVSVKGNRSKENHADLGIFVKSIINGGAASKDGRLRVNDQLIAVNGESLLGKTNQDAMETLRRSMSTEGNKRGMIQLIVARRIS
SCRIB_2, Q14160, sequence (Q14160 857-960): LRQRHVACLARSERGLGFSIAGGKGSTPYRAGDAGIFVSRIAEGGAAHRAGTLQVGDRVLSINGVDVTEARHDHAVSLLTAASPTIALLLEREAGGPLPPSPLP
Inadl_8, Q8NI35, sequence (Q8NI35 1425-1530): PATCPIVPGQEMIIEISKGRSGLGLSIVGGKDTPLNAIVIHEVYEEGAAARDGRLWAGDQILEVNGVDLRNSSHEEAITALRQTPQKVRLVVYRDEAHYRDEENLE
GRIP2_3, Q9C0E4, sequence (Q9C0E4 238-339): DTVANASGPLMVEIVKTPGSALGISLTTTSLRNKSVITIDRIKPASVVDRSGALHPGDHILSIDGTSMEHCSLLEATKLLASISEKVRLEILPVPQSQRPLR
MAGI3_2, Q5TCQ9, sequence (Q5TCQ9 398-503): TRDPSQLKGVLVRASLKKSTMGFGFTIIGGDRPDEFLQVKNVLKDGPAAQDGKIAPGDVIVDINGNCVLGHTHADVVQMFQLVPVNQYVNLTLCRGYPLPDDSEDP
AHNAK1, Q09666, sequence (Q09666 4-100): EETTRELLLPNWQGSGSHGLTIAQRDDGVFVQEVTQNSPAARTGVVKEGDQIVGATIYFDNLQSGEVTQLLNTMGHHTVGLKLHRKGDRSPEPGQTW
TJP2_1, Q9UDY2, sequence (Q9UDY2 24-128): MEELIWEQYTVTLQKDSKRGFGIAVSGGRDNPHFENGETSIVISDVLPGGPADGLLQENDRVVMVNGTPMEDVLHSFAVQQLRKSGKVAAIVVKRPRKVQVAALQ
GRASP, Q7Z6J2, sequence (Q7Z6J2 96-193): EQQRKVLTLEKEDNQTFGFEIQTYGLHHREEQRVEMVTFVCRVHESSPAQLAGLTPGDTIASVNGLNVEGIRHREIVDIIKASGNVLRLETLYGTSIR
Inadl_10, Q8NI35, sequence (Q8NI35 1673-1763): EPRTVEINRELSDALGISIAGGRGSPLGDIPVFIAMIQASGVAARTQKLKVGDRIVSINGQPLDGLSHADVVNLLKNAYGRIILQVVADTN

| Binder | pKd [1] | pKd [2] | pKd [3] | pKd [4] | pKd [5] | pKd [6] | pKd [7] | pKd [8] | pKd [9] | pKd [10] | pKd [11] | pKd [12] | pKd [13] | pKd [14] | pKd [15] | pKd [16] | pKd [17] | pKd [18] | pKd [19] | pKd [20] | further results |
| --- | --- | --- | --- | --- | --- | --- | --- | --- | --- | --- | --- | --- | --- | --- | --- | --- | --- | --- | --- | --- | --- |
| SPDRDRESIV [SCN5A, Q14524] | below the threshold | below the threshold | 5.66 | below the threshold | 3.91 | 4.51 | below the threshold | below the threshold | 3.56 | below the threshold | below the threshold | 3.51 | below the threshold | 5.4 | below the threshold | 3.85 | below the threshold | 3.86 | below the threshold | below the threshold | pKd [21]: below the threshold; pKd [22]: below the threshold; pKd [23]: 4.5; pKd [24]: below the threshold; pKd [25]: 4.9; pKd [26]: 4.21 |
| ARESQKVSHV [FAM110B, Q8TC76] | below the threshold | 3.9 | 4.52 | below the threshold | below the threshold | 4.32 | below the threshold | 3.66 | below the threshold | below the threshold | 3.8 | 4.19 | below the threshold | 5.17 | below the threshold | 4.8 | below the threshold | below the threshold | below the threshold | below the threshold | pKd [21]: below the threshold; pKd [22]: below the threshold; pKd [23]: 4.9; pKd [24]: 3.87; pKd [25]: 5.28; pKd [26]: below the threshold |
| STKRKLASAV [NCF1, P14598] | below the threshold | below the threshold | below the threshold | below the threshold | below the threshold | below the threshold | below the threshold | below the threshold | below the threshold | below the threshold | 3.65 | 3.74 | below the threshold | 4.51 | below the threshold | 4.46 | below the threshold | below the threshold | below the threshold | below the threshold | pKd [21]: below the threshold; pKd [22]: below the threshold; pKd [23]: 3.72; pKd [24]: below the threshold; pKd [25]: 5.35; pKd [26]: below the threshold |
| PPGKHLVTEV [KCNA7, Q96RP8] | below the threshold | below the threshold | 4.32 | 3.97 | below the threshold | 4.84 | below the threshold | 4.39 | 3.7 | 3.71 | 4.6 | 5.2 | below the threshold | 4.62 | below the threshold | 3.98 | below the threshold | below the threshold | 3.7 | below the threshold | pKd [21]: below the threshold; pKd [22]: 4.08; pKd [23]: 4.67; pKd [24]: 3.6; pKd [25]: 4.71; pKd [26]: below the threshold |
| TNSRHGETTV [FZD2, Q14332] | below the threshold | below the threshold | 4.75 | 3.82 | 3.99 | 4.41 | below the threshold | 4.02 | 3.51 | below the threshold | 3.56 | 4.07 | below the threshold | 4.18 | below the threshold | 3.57 | below the threshold | below the threshold | below the threshold | below the threshold | pKd [21]: below the threshold; pKd [22]: 4.42; pKd [23]: 3.68; pKd [24]: below the threshold; pKd [25]: 5.11; pKd [26]: below the threshold |
| LESTTVGTSV [KARS1, Q15046] | below the threshold | below the threshold | 3.85 | 3.79 | 4.24 | 3.95 | below the threshold | 3.92 | below the threshold | 3.71 | 3.95 | 4.04 | below the threshold | 4.87 | below the threshold | 4.15 | below the threshold | below the threshold | below the threshold | below the threshold | pKd [21]: below the threshold; pKd [22]: 4.46; pKd [23]: 3.6; pKd [24]: below the threshold; pKd [25]: 4.09; pKd [26]: below the threshold |
